Reference: doi:10.1101/2024.09.13.612963 (bioRxiv, 2024)

Molecular target: T1, TRAK1-mScarlet (wild type, truncated before the mitochondrial binding domain) (human, UniProt Q9UPV9 1-702)
T1 sequence (looked up): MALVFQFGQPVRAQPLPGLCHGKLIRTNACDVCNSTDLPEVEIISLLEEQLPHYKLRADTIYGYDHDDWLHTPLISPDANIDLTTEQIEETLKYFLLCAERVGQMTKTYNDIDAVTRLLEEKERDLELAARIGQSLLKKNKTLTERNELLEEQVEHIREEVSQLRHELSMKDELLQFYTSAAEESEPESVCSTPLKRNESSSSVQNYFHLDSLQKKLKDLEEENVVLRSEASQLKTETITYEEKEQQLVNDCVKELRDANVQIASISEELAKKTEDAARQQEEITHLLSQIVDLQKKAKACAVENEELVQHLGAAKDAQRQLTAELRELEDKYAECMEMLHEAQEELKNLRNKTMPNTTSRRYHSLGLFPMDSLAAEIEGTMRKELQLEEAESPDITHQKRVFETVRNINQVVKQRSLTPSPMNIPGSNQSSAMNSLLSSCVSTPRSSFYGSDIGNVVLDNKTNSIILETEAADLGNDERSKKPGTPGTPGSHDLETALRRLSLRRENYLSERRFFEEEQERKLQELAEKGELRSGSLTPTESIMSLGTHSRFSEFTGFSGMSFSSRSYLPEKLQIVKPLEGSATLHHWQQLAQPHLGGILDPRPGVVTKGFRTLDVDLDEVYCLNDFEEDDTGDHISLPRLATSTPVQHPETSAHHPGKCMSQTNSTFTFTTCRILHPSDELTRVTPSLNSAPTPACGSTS
Experiment: co-IP

B1: kinesin-1 (KIF5B) (natural protein, human (endogenous in hTERT RPE-1), UniProt P33176 1-963, looked up)
chain: MADLAECNIKVMCRFRPLNESEVNRGDKYIAKFQGEDTVVIASKPYAFDRVFQSSTSQEQVYNDCAKKIVKDVLEGYNGTIFAYGQTSSGKTHTMEGKLHDPEGMGIIPRIVQDIFNYIYSMDENLEFHIKVSYFEIYLDKIRDLLDVSKTNLSVHEDKNRVPYVKGCTERFVCSPDEVMDTIDEGKSNRHVAVTNMNEHSSRSHSIFLINVKQENTQTEQKLSGKLYLVDLAGSEKVSKTGAEGAVLDEAKNINKSLSALGNVISALAEGSTYVPYRDSKMTRILQDSLGGNCRTTIVICCSPSSYNESETKSTLLFGQRAKTIKNTVCVNVELTAEQWKKKYEKEKEKNKILRNTIQWLENELNRWRNGETVPIDEQFDKEKANLEAFTVDKDITLTNDKPATAIGVIGNFTDAERRKCEEEIAKLYKQLDDKDEEINQQSQLVEKLKTQMLDQEELLASTRRDQDNMQAELNRLQAENDASKEEVKEVLQALEELAVNYDQKSQEVEDKTKEYELLSDELNQKSATLASIDAELQKLKEMTNHQKKRAAEMMASLLKDLAEIGIAVGNNDVKQPEGTGMIDEEFTVARLYISKMKSEVKTMVKRCKQLESTQTESNKKMEENEKELAACQLRISQHEAKIKSLTEYLQNVEQKKRQLEESVDALSEELVQLRAQEKVHEMEKEHLNKVQTANEVKQAVEQQIQSHRETHQKQISSLRDEVEAKAKLITDLQDQNQKMMLEQERLRVEHEKLKATDQEKSRKLHELTVMQDRREQARQDLKGLEETVAKELQTLHNLRKLFVQDLATRVKKSAEIDSDDTGGSAAQKQKISFLENNLEQLTKVHKQLVRDNADLRCELPKLEKRLRATAERVKALESALKEAKENASRDRKRYQQEVDRIKEAVRSKNMARRGHSAQIAKPIRPGQHPAASPTHPSAIRGGGAFVQNSQPVAVRGGGGKQV
  fold enrichment against TRAK2-driven synthetic cargo: ~20 fold
